In patent US20220106391A1 (ZOETIS SERVICES, published 2022):

T1: canine beta-NGF (cNGF) (canine, UniProt Q29074 110-229 (pig entry))
T1 construct: also called canine NGF; can NGF
T1 chain: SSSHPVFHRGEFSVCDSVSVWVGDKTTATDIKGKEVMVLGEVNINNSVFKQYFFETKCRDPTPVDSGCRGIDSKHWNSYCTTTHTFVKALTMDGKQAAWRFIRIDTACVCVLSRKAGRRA

T2: feline NGF (feline)
T2 chain: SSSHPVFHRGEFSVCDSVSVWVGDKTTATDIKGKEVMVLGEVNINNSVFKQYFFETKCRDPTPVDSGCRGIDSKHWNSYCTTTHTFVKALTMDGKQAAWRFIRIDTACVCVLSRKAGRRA


Columns and labels:
canine beta-NGF (cNGF) [1] = biological target: T1, canine beta-NGF (cNGF); experiment: SPR (Biacore), cNGF binding; KD column of Table 7
canine beta-NGF (cNGF) [2] = biological target: T1, canine beta-NGF (cNGF); experiment: SPR (Biacore), cNGF binding
canine beta-NGF (cNGF) [3] = biological target: T1, canine beta-NGF (cNGF); experiment: SPR (Biacore), KD column of Table 3
canine beta-NGF (cNGF) [4] = biological target: T1, canine beta-NGF (cNGF); experiment: cell-based or functional assay
rat NGF = rat NGF (rat, UniProt P25427 122-241); experiment: cell-based or functional assay
rat NGF, sequence (P25427 122-241 limits assumed): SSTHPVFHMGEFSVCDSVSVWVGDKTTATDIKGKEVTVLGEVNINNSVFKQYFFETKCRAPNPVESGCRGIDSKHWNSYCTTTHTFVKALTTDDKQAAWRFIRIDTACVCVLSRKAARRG

NGF (species not stated) [5] = experiment: cell-based or functional assay
canine beta-NGF (cNGF) [6] = biological target: T1, canine beta-NGF (cNGF); experiment: SPR (Biacore)
NGF (species not stated) [7] = experiment: cell-based or functional assay; remark: listed apart in the source
feline NGF = biological target: T2, feline NGF; experiment: SPR, Biacore 3000, feline NGF
Experimental: Affinities of selected felinized anti-NGF antibody to feline NGF were measured using SPR (Surface Plasmon Resonance), Biacore 3000. Kinetics of association and dissociation of a felinized mAb with/from feline NGF were measured at different concentrations.

Row | Binder | Kd (canine beta-NGF (cNGF) [1]) | Kd (canine beta-NGF (cNGF) [2]) | koff (canine beta-NGF (cNGF) [2]) | kon (canine beta-NGF (cNGF) [2]) | IC50 (nM) (pERK-1/2, cell line expressing human TrkA) (NGF (species not stated) [7]) | Kd (feline NGF) | further results
1 | 182m43 (antibody, V domains shown, 51 except in CDR2 (THSLHN); 51 as printed; also called Can-182-m43) VH: EVQLVESGGDLARPGGSLKLSCVVSGFTLTQYGINWVRQAPGKGLQWVTVIWATGATDYNSALKSRFTVSRDNAMNTVYLQMNSLRVEDTAVYYCARDGWWYATSWYFDVWGQGTLVTVSS VL: DIVMTQTPLSLSVSPGEPASISCKASQDINHYLNWFRQKPDGTVKLLIYYTHSLHNGVPSRFSGSGSGTDFTLRISRVEADDAGVYYCQQGDHFPRTFGQGT | 4.32 nM | 4.32 nM | 3.32e-06 s⁻¹ | 769 M⁻¹ s⁻¹ |  |  | 
2 | 182m70 (antibody, V domains shown, 51 except in CDR2 (TSSLHG); 51 (CDR2 Pos. 1-6 = residues 51-56); also called Can-182-m70) VH: EVQLVESGGDLARPGGSLKLSCVVSGFTLTQYGINWVRQAPGKGLQWVTVIWATGATDYNSALKSRFTVSRDNAMNTVYLQMNSLRVEDTAVYYCARDGWWYATSWYFDVWGQGTLVTVSS VL: DIVMTQTPLSLSVSPGEPASISCKASQDINHYLNWFRQKPDGTVKLLIYYTSSLHGGVPSRFSGSGSGTDFTLRISRVEADDAGVYYCQQGDHFPRTFGQGT | 4.9 nM | 4.9 nM | 9.46e-06 s⁻¹ | 1930 M⁻¹ s⁻¹ |  |  | 
3 | 182m72 (antibody, V domains shown, 51 except in CDR2 (TSSLHQ); 51 (CDR2 Pos. 1-6 = residues 51-56); also called Can-182-m72) VH: EVQLVESGGDLARPGGSLKLSCVVSGFTLTQYGINWVRQAPGKGLQWVTVIWATGATDYNSALKSRFTVSRDNAMNTVYLQMNSLRVEDTAVYYCARDGWWYATSWYFDVWGQGTLVTVSS VL: DIVMTQTPLSLSVSPGEPASISCKASQDINHYLNWFRQKPDGTVKLLIYYTSSLHQGVPSRFSGSGSGTDFTLRISRVEADDAGVYYCQQGDHFPRTFGQGT | 0.0741 nM | 0.0741 nM | 2.79e-07 s⁻¹ | 3760 M⁻¹ s⁻¹ |  |  | 
4 | 182m75 (antibody, V domains shown, 51 except in CDR2 (TSSLHV); 51 (CDR2 Pos. 1-6 = residues 51-56); also called Can-182-m75) VH: EVQLVESGGDLARPGGSLKLSCVVSGFTLTQYGINWVRQAPGKGLQWVTVIWATGATDYNSALKSRFTVSRDNAMNTVYLQMNSLRVEDTAVYYCARDGWWYATSWYFDVWGQGTLVTVSS VL: DIVMTQTPLSLSVSPGEPASISCKASQDINHYLNWFRQKPDGTVKLLIYYTSSLHVGVPSRFSGSGSGTDFTLRISRVEADDAGVYYCQQGDHFPRTFGQGT | 2.03 nM | 2.03 nM | 8.99e-07 s⁻¹ | 444 M⁻¹ s⁻¹ |  |  | 
5 | 182m114 (antibody, V domains shown, 51 except in CDR2 (TASLHQ); 51 (CDR2 Pos. 1-6 = residues 51-56); also called Can-182-m114) VH: EVQLVESGGDLARPGGSLKLSCVVSGFTLTQYGINWVRQAPGKGLQWVTVIWATGATDYNSALKSRFTVSRDNAMNTVYLQMNSLRVEDTAVYYCARDGWWYATSWYFDVWGQGTLVTVSS VL: DIVMTQTPLSLSVSPGEPASISCKASQDINHYLNWFRQKPDGTVKLLIYYTASLHQGVPSRFSGSGSGTDFTLRISRVEADDAGVYYCQQGDHFPRTFGQGT | 0.707 nM | 0.707 nM | 1.27e-06 s⁻¹ | 1790 M⁻¹ s⁻¹ |  |  | 
6 | H3AQC23L1A02D9L2 (antibody, V domains shown, Caninized IgG) VH: EVQLVESGGDLARPGGSLKLSCVVSGFTLTQYGINWVRQAPGKGLQWVTVIWATGATDYNSALKSRFTVSRDNAMNTVYLQMNSLRVEDTAVYYCARDGWWYATSWYFDVWGQGTLVTVSS VL: DIVMTQTPLSLSVSPGEPASISCRASQDISNYLNWFRQKPDGTVKLLIYKTNSLQTGVPSRFSGSGSGTDFTLRISRVEADDAGVYYCQQGSTLPRTFGQGT |  |  |  |  |  |  | binding result (canine beta-NGF (cNGF) [3]): no binding
7 | H3AQC2301B12L1AL1L3 (ZTS-00103182) (antibody, V domains shown, Caninized IgG; 49 as printed runs on into CH1; the VL entry stops at FGQGT; also called ZTS-182; wt 182) VH: EVQLVESGGDLARPGGSLKLSCVVSGFTLTQYGINWVRQAPGKGLQWVTVIWATGATDYNSALKSRFTVSRDNAMNTVYLQMNSLRVEDTAVYYCARDGWWYATSWYFDVWGQGTLVTVSS VL: DIVMTQTPLSLSVSPGEPASISCKASQDINHYLNWFRQKPDGTVKLLIYYTSRLHSGVPSRFSGSGSGTDFTLRISRVEADDAGVYYCQQGDHFPRTFGQGT | 0.0027 nM |  |  |  |  |  | IC50 [nM] (TrkA cell based assay) (canine beta-NGF (cNGF) [4]): 1.26 nM; IC50 nM (inhibition of neurite outgrowth, PC12 cells, rat NGF 10 ng/ml) (rat NGF): 0.21 nM; IC50 µg/ml (inhibition of neurite outgrowth, PC12 cells, rat NGF 10 ng/ml) (rat NGF): 0.031 µg/mL; IC50 nM (TF-1 proliferation inhibition, NGF 2.0 ng/ml) (NGF (species not stated) [5]): 0.046 nM; IC50 µg/ml (TF-1 proliferation inhibition, NGF 2.0 ng/ml) (NGF (species not stated) [5]): 0.00693 µg/mL; Kd (canine beta-NGF (cNGF) [6]): 0.061 nM
8 | mAb 1B (ZTS-082) (antibody, IgG1a, V domains shown, Felinized IgG with feline heavy and kappa constant regions; also called ZTS-082-1B; H1-23 / KPL) VH: DVQLVESGGDLVQPGGSLRLTCVASGFTLTQYGINWVRQAPGKGLQWVAVIWATGATDYNSALKSRFTISRDNAKNTLYLQMNSLKTEDTATYYCARDGWWYATSWYFDVWGQGALVTVSS VL: DIVMTQTPLSLSVTPGEPASISCKASQDINHYLNWYLQKPDGTVKLLIYYTSRLHSGVPSRFSGSGSGTDFTLRISRVEADDVGVYYCQQGDHFPRTFGPGT |  |  |  |  | 1.28 nM | 0.00941 nM | 
9 | H1-23L3K36 (antibody, V domains shown, also called ZTS-082-1C) VH: DVQLVESGGDLVQPGGSLRLTCVASGFTLTQYGINWVRQAPGKGLQWVAVIWATGATDYNSALKSRFTISRDNAKNTLYLQMNSLKTEDTATYYCARDGWWYATSWYFDVWGQGALVTVSS VL: DIVMTQTPLSLPVTPGEPASISCKASQDINHYLNWYLQKPGQSPRLLIYYTSRLHSGVPSRFSGSGSGTDFTLRISSVEADDVGVYYCQQGDHFPRTFGQGT |  |  |  |  | 1.3 nM | 0.916 nM | 
10 | H733 L3-K36 (antibody, V domains shown, also called ZTS-082-361) VH: DVQLVESGGDLVKPGGSLRLTCVASGFTLTQYGINWVRQAPGKGLQWVAVIWATGATDYNSALKSRFTMSRDNARNTLYLQMNSLKTEDTATYYCARDGWWYATSWYFDVWGQGTLVTVSS VL: DIVMTQTPLSLPVTPGEPASISCKASQDINHYLNWYLQKPGQSPRLLIYYTSRLHSGVPSRFSGSGSGTDFTLRISSVEADDVGVYYCQQGDHFPRTFGQGT |  |  |  |  | 1.13 nM | 0.000334 nM | 
11 | H733KPL (antibody, V domains shown, also called ZTS-082-2E) VH: DVQLVESGGDLVKPGGSLRLTCVASGFTLTQYGINWVRQAPGKGLQWVAVIWATGATDYNSALKSRFTMSRDNARNTLYLQMNSLKTEDTATYYCARDGWWYATSWYFDVWGQGTLVTVSS VL: DIVMTQTPLSLSVTPGEPASISCKASQDINHYLNWYLQKPDGTVKLLIYYTSRLHSGVPSRFSGSGSGTDFTLRISRVEADDVGVYYCQQGDHFPRTFGPGT |  |  |  |  | 1.34 nM | 0.000458 nM | 
12 | H1-23K643 (antibody, V domains shown, also called ZTS-082-2D) VH: DVQLVESGGDLVQPGGSLRLTCVASGFTLTQYGINWVRQAPGKGLQWVAVIWATGATDYNSALKSRFTISRDNAKNTLYLQMNSLKTEDTATYYCARDGWWYATSWYFDVWGQGALVTVSS VL: EIQMTQSPSSLSASPGDRVTITCKASQDINHYLNWYQQKPGKVPKLLIYYTSRLHSGVPSRFSGSGSGTDFTLTISSLEPEDAATYYCQQGDHFPRTFGGGT |  |  |  |  | 1.48 nM | 0.177 nM | 
